The source of these data is article PMC13343975, “A connection between two ancient and essential cellular processes, iron-sulfur protein biogenesis and fatty acid synthesis, in Escherichia coli” (mBio, 2026).

The target of assay [1] is T1, 6His-IscS (E. coli, UniProt P0A6B7 1-404).
T1 construct: IscS cysteine desulfurase, E. coli; IscS-coding region (primers OSD56/OSD57, start codon to stop codon, 1,248 bp fragment) between EcoRI and XhoI of pET6His-TEV; The vector's name tells a TEV site between the 6His tag and the protein; no cleavage is told; also called pET-6His-TEV-iscS; source: E. coli MG1655(DE3), purified (Ni-nitrilotriacetic acid agarose); not shown: 6His, N-terminal, kept

Assay [2] has as its target T1, 6His-IscS. The assay is described as follows: native gel or EMSA; 6His-IscS 15 µM with 6His-ACP or variant 30 µM, 20 min at 37°C in 100 mM Hepes, 150 mM NaCl; non-denaturing 12% PAGE, Coomassie Blue. As to conditions: both partners purified.

T1 sequence (P0A6B7 whole entry, the tested form may be a part): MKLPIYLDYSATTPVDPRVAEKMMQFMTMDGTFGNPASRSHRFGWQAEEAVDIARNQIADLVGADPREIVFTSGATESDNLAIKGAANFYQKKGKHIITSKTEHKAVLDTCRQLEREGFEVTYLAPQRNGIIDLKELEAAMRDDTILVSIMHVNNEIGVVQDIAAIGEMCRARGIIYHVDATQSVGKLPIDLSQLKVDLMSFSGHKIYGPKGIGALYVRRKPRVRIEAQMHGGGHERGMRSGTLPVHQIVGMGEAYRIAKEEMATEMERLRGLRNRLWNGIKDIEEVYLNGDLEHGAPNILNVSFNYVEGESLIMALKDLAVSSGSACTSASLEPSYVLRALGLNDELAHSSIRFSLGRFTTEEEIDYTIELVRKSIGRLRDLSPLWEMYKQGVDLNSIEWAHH

With “acylated 6His-ACP (from UniProt P0A6A8 1-78) (natural protein)”, the cysteine desulfurase activity of IscS (methylene blue assay), relative to IscS alone with 6His-IscS [1] stood at 3 fold.

B1: 6His-ACP (natural protein, E. coli, UniProt P0A6A8 1-78, looked up)
chain: MSTIEERVKKIIGEQLGVKQEEVTNNASFVEDLGADSLDTVELVMALEEEFDTEIPDEEAEKITTVQAAIDYINGHQA
modifications: preparation expected to comprise a mixture of apo-ACP, holo-ACP (phosphopantetheine-bound ACP, on Ser36) and a minor fraction of acylated ACP
notes: acyl carrier protein (ACP), E. coli; ACP-coding region (primers OSD146/OSD147, start codon to stop codon, 263 bp fragment) between EcoRI and XhoI of pET6His-TEV; The vector's name tells a TEV site between the 6His tag and the protein; no cleavage is told; also called ACPWT; wild-type ACP; source: E. coli MG1655(DE3), 10 mM pantothenate in the culture, purified (Ni-nitrilotriacetic acid agarose); …
Take B1: in the assay with 6His-IscS [2], the binding result is “binds”.
